{
  "source": "patent US20060246095A1",
  "about": "“Multiepitope polypeptides for cancer immunotherapy” (HADASIT MEDICAL RESEARCH SERVICES & DEVELOPMENT LTD., priority 2003, published 2006)",
  "molecules": {"B1": {"name": "MEP-mel: melanoma multiepitope polypeptide, SEQ ID NO: 2 or 57; in Tables 2-9 delivered by transfecting DC with pcDNA3-MEP-Mel plasmid (protein)", "chain": "PGTMGSCRKSYYLEPGPVTVRKSYLIMDQVPFSVRKSYLYMDGTMSQVRKSYLAGIGILTVRKSYYLEPGPVTVALLIMDQVPFSVALLYMDGTMSQVALLLAGIGILTVSSLYLEPGPVTVAAYIMDQVPFSVSSLYMDGTMSQVAAYLAGIGILTV"}},
  "test_system": "T cell clone CK3H6 (A2 restricted gp100 epitope 209-217)",
  "assay": "Recognition assay for peptide presentation by DC (IFN-γ release ELISA), T cell clone CK3H6",
  "type": "cell-based, human",
  "settings": "CK3H6",
  "procedure": "Dendritic cells were isolated from cytopheresis MNCs of melanoma patients with the HLA haplotypes HIA-A*0201 and HLA-DRβ1*0401. DC were generated from plastic adherent PBMCs cultured in RPMI with 10% human AB-serum, L-glutamine, penicillin-streptomycin, supplemented with GM-CSF 1000 IU/ml and IL-4 1000 IU/ml. By day 6, immature DC were harvested for electroporation.\n2.5-3×10^6 DC were re-suspended in 100 μl nucleofector solution and added to 5 μg of DNA plasmid in 2-mm electrode gap cuvettes. Transfected DC were immediately plated with CM containing GM/IL4 or let mature using TNFα 100 ng/ml and PGE2 1000 ng/ml. GFP-transfected DCs were collected 16-24 hours later for FACS analysis.\nDC were pulsed with 1 μg/ml of the relevant peptides at 1×10^6 cells/ml. Stimulants were added after 1 hour incubation without washing the peptide.\nCK3H6 which recognizes the A2 restricted gp100 epitope 209-217.\nT cell clones were co-incubated with DC in flat 96-well plate for 24 hours. DC were plated immediately after their transfection or pulsing in 6 separated plates, in the presence of GM CSF and IL-4. 1×10^5 T cells were added to 1×10^5 pulsed or transfected DC. In the longitudinal study, T cell clones were added to the transfected/pulsed DC at the following time points: T0=immediately, +12=after 12 hours, 24, 36, 48 and 72 hours. Supernatants were collected after overnight incubation. Interferon gamma release assay was performed to evaluate T cell stimulation using the ELISA method, results are presented in pg/ml.\nLactacystin was added to DC at concentrations of 25 μM and 50 μM, 4 hours post transfection. DC were incubated with lactacystin for 70 minutes and then washed twice.\nResponding T cells were added after washing the lactacystin and co-incubated. Supernatents were collected after 20 hours.\nFor recognition assay of DC epitope presentation, 1×10^5 cells from different T cell clones, that were grown from PBMCs of patients, and were restricted to particular melanoma antigen peptides, were co-incubated with 1×10^5 pulsed or transfected DC, in the presence of GM-CSF and IL-4. T cell clones were added to the transfected/pulsed DC at the following time points: T=0 immediately, T=12, 24, 36, 48, 72 hours. Supernatant was collected after overnight incubation and was subjected to interferon gamma release assay, in order to evaluate the specific T cell activity towards the particular peptide presented by the DC cells.\nThe results shown in the following tables represent the amount of Interferon-γ (pg/ml) secreted to the culture medium as an index for T cell stimulation.",
  "data": [
    {"molecule": "B1", "values": [
      {"measurement": "Interferon-γ secreted to the culture medium", "setting": "transfected DC from donor 1, T = 0 hours", "result": ">2000", "unit": "pg/mL"},
      {"measurement": "Interferon-γ secreted to the culture medium", "setting": "transfected DC from donor 2, T = 0 hours", "result": ">2000", "unit": "pg/mL"},
      {"measurement": "Interferon-γ secreted to the culture medium", "setting": "transfected DC, Lactacystin 0", "result": 705, "unit": "pg/mL"},
      {"measurement": "Interferon-γ secreted to the culture medium", "setting": "transfected DC, Lactacystin 25 μM", "result": 73, "unit": "pg/mL"},
      {"measurement": "Interferon-γ secreted to the culture medium", "setting": "transfected DC, Lactacystin 50 μM", "result": 36, "unit": "pg/mL"},
      {"measurement": "Interferon-γ secreted to the culture medium", "setting": "transfected or peptide-pulsed DC, Donor 1, T = 12 hours", "result": ">2000", "unit": "pg/mL"},
      {"measurement": "Interferon-γ secreted to the culture medium", "setting": "transfected or peptide-pulsed DC, Donor 1, T = 24 hours", "result": ">2000", "unit": "pg/mL"},
      {"measurement": "Interferon-γ secreted to the culture medium", "setting": "transfected or peptide-pulsed DC, Donor 1, T = 36 hours", "result": ">2000", "unit": "pg/mL"},
      {"measurement": "Interferon-γ secreted to the culture medium", "setting": "transfected or peptide-pulsed DC, Donor 1, T = 48 hours", "result": ">2000", "unit": "pg/mL"},
      {"measurement": "Interferon-γ secreted to the culture medium", "setting": "transfected or peptide-pulsed DC, Donor 1, T = 72 hours", "result": 1808, "unit": "pg/mL"},
      {"measurement": "Interferon-γ secreted to the culture medium", "setting": "transfected or peptide-pulsed DC, Donor 2, T = 12 hours", "result": ">2000", "unit": "pg/mL"},
      {"measurement": "Interferon-γ secreted to the culture medium", "setting": "transfected or peptide-pulsed DC, Donor 2, T = 24 hours", "result": ">2000", "unit": "pg/mL"},
      {"measurement": "Interferon-γ secreted to the culture medium", "setting": "transfected or peptide-pulsed DC, Donor 2, T = 36 hours", "result": ">2000", "unit": "pg/mL"},
      {"measurement": "Interferon-γ secreted to the culture medium", "setting": "transfected or peptide-pulsed DC, Donor 2, T = 48 hours", "result": ">2000", "unit": "pg/mL"},
      {"measurement": "Interferon-γ secreted to the culture medium", "setting": "transfected or peptide-pulsed DC, Donor 2, T = 72 hours", "result": 1328, "unit": "pg/mL"}
    ]}
  ]
}
